Measurements reported in IntAct's records for PubMed 29892012.

B1: Abl interactor 2 (Homo sapiens), Q9NYB9 (parent)
chain: MAELQMLLEEEIPGGRRALFDSYTNLERVADYCENNYIQSADKQRALEETKAYTTQSLASVAYLINTLANNVLQMLDIQASQLRRMESSINHISQTVDIHKEKVARREIGILTTNKNTSRTHKIIAPANLERPVRYIRKPIDYTILDDIGHGVKWLLRFKVSTQNMKMGGLPRTTPPTQKPPSPPMSGKGTLGRHSPYRTLEPVRPPVVPNDYVPSPTRNMAPSQQSPVRTASVNQRNRTYSSSGSSGGSHPSSRSSSRENSGSGSVGVPIAVPTPSPPSVFPAPAGSAGTPPLPATSASAPAPLVPATVPSSTAPNAAAGGAPNLADGFTSPTPPVVSSTPPTGHPVQFYSMNRPASRHTPPTIGGSLPYRRPPSITSQTSLQNQMNGGPFYSQNPVSDTPPPPPPVEEPVFDESPPPPPPPEDYEEEEAAVVEYSDPYAEEDPPWAPRSYLEKVVAIYDYTKDKEDELSFQEGAIIYVIKKNDDGWYEGVMNGVTGLFPGNYVESIMHYSE
partner: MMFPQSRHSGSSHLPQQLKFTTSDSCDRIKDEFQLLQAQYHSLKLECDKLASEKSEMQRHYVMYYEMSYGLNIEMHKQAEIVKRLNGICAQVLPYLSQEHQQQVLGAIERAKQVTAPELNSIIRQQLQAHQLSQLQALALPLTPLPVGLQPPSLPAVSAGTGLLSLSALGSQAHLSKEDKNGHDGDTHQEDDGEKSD
B2: Abl interactor 2 (Homo sapiens), Q9NYB9 (parent)
chain: B1 chain
partner: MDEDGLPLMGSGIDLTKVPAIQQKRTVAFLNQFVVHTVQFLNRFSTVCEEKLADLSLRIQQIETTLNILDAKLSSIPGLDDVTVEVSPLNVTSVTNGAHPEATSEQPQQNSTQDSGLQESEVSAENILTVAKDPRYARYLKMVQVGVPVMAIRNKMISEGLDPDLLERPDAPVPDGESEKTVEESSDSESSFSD
B3: Abl interactor 2 (Homo sapiens), Q9NYB9 (parent)
chain: B1 chain
partner: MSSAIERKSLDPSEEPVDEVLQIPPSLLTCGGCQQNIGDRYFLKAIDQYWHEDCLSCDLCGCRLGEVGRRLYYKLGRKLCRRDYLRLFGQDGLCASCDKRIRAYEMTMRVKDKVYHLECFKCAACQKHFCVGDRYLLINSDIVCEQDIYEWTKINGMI
B4: Abl interactor 2 (Homo sapiens), Q9NYB9 (parent)
chain: B1 chain
partner: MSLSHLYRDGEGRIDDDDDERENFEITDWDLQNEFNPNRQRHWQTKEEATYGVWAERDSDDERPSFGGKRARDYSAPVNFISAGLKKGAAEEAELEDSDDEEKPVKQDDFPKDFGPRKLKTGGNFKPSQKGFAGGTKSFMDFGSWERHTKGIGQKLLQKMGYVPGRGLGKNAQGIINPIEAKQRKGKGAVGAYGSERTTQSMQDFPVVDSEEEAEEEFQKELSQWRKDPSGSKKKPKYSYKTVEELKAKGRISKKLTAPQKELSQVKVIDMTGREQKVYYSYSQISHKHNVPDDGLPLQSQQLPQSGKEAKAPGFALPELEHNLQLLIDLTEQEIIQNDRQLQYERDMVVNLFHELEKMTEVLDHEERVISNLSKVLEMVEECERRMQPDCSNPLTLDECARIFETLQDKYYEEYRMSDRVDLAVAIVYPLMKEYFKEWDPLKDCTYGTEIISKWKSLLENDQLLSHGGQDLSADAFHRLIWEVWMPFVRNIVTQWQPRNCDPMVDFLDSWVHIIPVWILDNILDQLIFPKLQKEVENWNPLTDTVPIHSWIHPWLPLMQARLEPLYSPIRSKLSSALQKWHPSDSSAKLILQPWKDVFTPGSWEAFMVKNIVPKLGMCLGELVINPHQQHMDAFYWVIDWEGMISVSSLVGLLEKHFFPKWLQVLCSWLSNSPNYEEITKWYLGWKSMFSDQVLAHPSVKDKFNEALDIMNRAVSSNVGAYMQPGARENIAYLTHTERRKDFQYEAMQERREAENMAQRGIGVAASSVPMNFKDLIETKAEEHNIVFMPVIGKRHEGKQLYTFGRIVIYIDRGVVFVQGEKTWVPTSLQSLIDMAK

Variants of: B1
Conditions: with tle5_human TLE5, Q08117

| Variant | effect of a mutation on the interaction |
| --- | --- |
| E202K | with no effect |

Variants of: B1
Conditions: with tle5_human TLE5, Q08117
Remark: another data set of the same source

| Variant | effect of a mutation on the interaction |
| --- | --- |
| R373C | with no effect |

Variants of: B2
Conditions: with wasc3_human WASHC3, Q9Y3C0

| Variant | effect of a mutation on the interaction |
| --- | --- |
| R373C | with no effect |

Variants of: B2
Conditions: with wasc3_human WASHC3, Q9Y3C0
Remark: another data set of the same source

| Variant | effect of a mutation on the interaction |
| --- | --- |
| E202K | with no effect |

Variants of: B3
Conditions: with rbtn2_human LMO2, P25791

| Variant | effect of a mutation on the interaction |
| --- | --- |
| R373C | with no effect |

Variants of: B3
Conditions: with rbtn2_human LMO2, P25791
Remark: another data set of the same source

| Variant | effect of a mutation on the interaction |
| --- | --- |
| E202K | with no effect |

Variants of: B4
Conditions: with tfp11_human TFIP11, Q9UBB9

| Variant | effect of a mutation on the interaction |
| --- | --- |
| R373C | with no effect |

Variants of: B4
Conditions: with tfp11_human TFIP11, Q9UBB9
Remark: another data set of the same source

| Variant | effect of a mutation on the interaction |
| --- | --- |
| E202K | with no effect |
